Data: US6482605

Molecular target: EGF receptor (endogenous, in PC12 cell lysate)

B1: histidine-tagged PTP20 wild-type (6 histidine residues at the N-terminus), tetracycline-controlled expression in PC12 cells (protein)
chain: MHHHHHHSRQSDLVRSFLEQQEARDHRKGAILAREFSDIKARSVAWKTEGVCSTKAGSQQGNSKKNRYKDVVPYDETRVILSLLQEEGHGDYINANFIRGTDGSQAYIATQGPLPHTLLDFWRLVWEFGIKVILMACQETENGRRKCERYWAQEREPLQAGPFCITLTKETALTSDITLRTLQVTFQKESRPVHQLQYMSWPDHGVPSSSDHILTMVEEARCLQGLGPGPLCVHCSAGCGRTGVLCAVDYVRQLLLTQTIPPNFSLFEVVLEMRKQRPAAVQTEEQYRFLYHTVAQLFSRTLQNNSPLYQNLKENRAPICKDSSSLRTSSALPATSRPLGGVLRSISVPGPPTLPMADTYAVVQKRGASGSTGPGTRAPNSTDTPIYSQVAPRIQRPVSHTENAQGTTALGRVPADENPSGPDAYEEVTDGAQTGGLGFNLRIGRPKGPRDPPAEWTRV
- tyrosine phosphorylation of EGF receptor upon EGF stimulation (precipitation, anti-phosphotyrosine blot): Overexpression of PTP20 wt resulted in dramatic dephosphorylation of EGF receptor
